{"source": "patent US20220016130", "target": "His-BRD4-N (amino acids 1-500), O60885", "data": [{"protein": "GST-SPOP (protein) MSRVPSPPPPAEMSSGPVAESWCYTQIKVVKFSYMWTINNFSFCREEMGEVIKSSTFSSGANDKLKWCLRVNPKGLDEESKDYLSLYLLLVSCPKSEVRAKFKFSILNAKGEETKAMESQRAYRFVQGKDWGFKKFIRRDFLLDEANGLLPDDKLTLFCEVSVVQDSVNISGQNTMNMVKVPECRLADELGGLWENSRFTDCCLCVAGQEFQAHKAILAARSPVFSAMFEHEMEESKKNRVEINDVEPEVFKEMMCFIYTGKAPNLDKMADDLLAAADKYALERLKVMCEDALCSNLSVENAAEILILADLHSADQLKTQAVDFINYHASDVLETSGWKSMVVSHPHLVAEAYRSLASAQCPFLGPPRKRLKQS", "values": [{"measurement": "in vitro ubiquitination assay (western blot)", "result": "The SPOP-CULLIN3-RBX1 complex was shown to catalyzed BRD4 ubiquitination in vitro"}]}]}
